Results taken from PMC8277577 (Nature, 2021).

molecular target: SARS-CoV-2 receptor binding domain (RBD) (SARS-CoV-2, GenBank MN985325.1 …, UniProt P0DTC2); test: BLI; settings: both partners purified

Binder | Kd [nM]
C934 (antibody, V domains shown, source: recombinant, purified) VH: QVQLVQSGAEVKKPGASVKVSCKASGYTFTDYYIHWVRQAPGQGLEWMGWINPNSGGTNYAQKFQGRVTMTRDTSISTAYMDLSRLRSDDTAVYYCARDVIITMGRGVVFRMDVWGQGTTVTVSS VL: not shown | 10.8
C032 (antibody, V domains shown, source: recombinant, purified) VH: EVQLVQSGAEVKKPGESLKISCKGSGYSFTSYWIGWVRQMPGKGLEWMGIIYPGDSDTRYSPSFQGQVTISADKSISTAYLQWSSLKASDTAMYYCARGVAVDWYFDLWGRGTLVTVSS VL: QSVLTQPPSVSGAPGQRVTISCTGSSSNIGAGYDVHWYQQLPGTAPKLLIYGNSNRPSGVPDRFSGSKSGTSASLAITGLQAEDEADYYCQSYDSSLSALYVFGTGTKVTVL | 32.1
C881 (antibody, V domains shown, source: recombinant, purified) VH: EVQLVESGGGLIQPGGSLRLSCAVSGVAVSTNYMSWVRQAPGQGLEWVSTIYSGDTTYYSDSVKGRFTISRDNSKNTFYLQMNSLRVPDTAVYYCARLGGVFNGFNGSFDYWGQGTLVTVS VL: QSALTQPASVSGSPGQSITISCIGTSSDFENYNLVSWYQQHPGKAPKVMIYEDTKRPSGVSNRFSGSKSANTASLTISGLQAEDEAEYYCCSYAGASTWVFGGGTRVTVV | 1.95
C889 (antibody, V domains shown, source: recombinant, purified) VH: EVQLVESGGGLVQPGGSLRLSCAVSGFTVSSNYMTWVRQAPGKGLEWVSLIYSGTSAFYADSVKGRFTISRDNSKNTLYLQMSSLRVNDTAIYYCARDLRKDDGYSYGAFDYWGQGTLVTVSS VL: QSALTQPASVSGSPGQSITISCSGTSSDVGAHNYVSWYQQYPGKAPKLMIFDVTDRPSGVSNRFSGSKSGNTASLTISGLQAEDEADYYCTSYTTNRSWVFGGGTKVTVL | 2.46
C840 (antibody, V domains shown, source: recombinant, purified) VH: QVQLVESGGGVVQPGRSLRLSCEASGFTFTAYAMHWLRQAPGKGLEWVAVILNDGSNKLYADSVKGRFTVSRDNSKNMLYLQVNSLRVDDTAVYYCARDGSVDTLMVTWFDYWGQGTLVTVSS VL: DIQMTQSPSSLSASVGDRVTITCRASQSVNNYLNWYQQKPGQAPKLLIYAASSLQSGVPLRFSGSGSGTDFALTITSLHTEDFATYYCQQSYNTPPWTFGPGTKVEIK | 1.87
C871 (antibody, V domains shown, source: recombinant, purified) VH: EVQLVESGGGLIQTGGSLKLSCAASGFIVTNNYMSWVRQAPGKGLEWVSVIYSGGTTYYADSVKGRFTISRDISKNTLYLQMNSLKAEDTAVYYCAREGDVEGISDSWSGYSRDRYYFDHWGQGTLVTVSS VL: QSALTQPASVSGSPGQSITISCTGTSSDVGGYNYVSWYQQHPGKAPKLMIYDVSNRPPTISNRFSGSKSGNTASLIISGLQPEDEADYYCSSFTSNNTRVFGTGTKVTVL | 2.76
C937 (antibody, V domains shown, source: recombinant, purified) VH: EVQLVESGGGLIQPGGSLRLSCAASELTVSSNYMSWVRQAPGKGLEWVSVIYPGGSTFYADSVKGRFTISRDNSKNTLYLQMNSLRAEDTAVYYCARDLGTGLFDYWGQGTLVTVSS VL: DIQLTQSPSFLSASVGDRVTITCRASQGISSYLAWYQQKPGKAPKLLIYAASTLQSGVPSRFSGSGSGTEFTLTISSLQPEDFATYFCQLLNSNPPGTFGPGTKVDIK | 4.4
C929 (antibody, V domains shown, source: recombinant, purified) VH: EVQLVESGGGLIQPGGSLRLSCAASGFTVSSNYMTWVRQAPGKGLEWVSVIYSGGTTYYADSVKGRFTISRDNSKNTLYLQMNSLRAEDTAVYYCARDLVVWGMDVWGQGTTVTVSS VL: DIQLTQSPSFLSASVGDRVTITCRASQGISSYLAWYQQKPGKAPKLLIYAASTLQSGVPSRFSGSGSGTEFTLTISSLQPEDFATYYCQLLNSYPYTFGQGTKLEIK | 0.791
C930 (antibody, V domains shown, source: recombinant, purified) VH: EVQLVESGGGLFQPGGSLRLACAASGITVSSNYMSWVRQPPGKGLEWVSVIYAGGSTFYADSVKGRLTISRDNSKNTLYLQINSLRAEDTAVYYCARDLVVWGMDVWGQGTTVTVSS VL: DIQLTQSPSFLSASVGDRVTITCRASQGISSYLAWYQQKPGKAPKLLIYAASTLQSGVPSRFSGSGSGTEFTLTISSLQPEDFATYYCQQLNTYPYTFGQGTKLEIK | 0.318
C952 (antibody, V domains shown, source: recombinant, purified) VH: EVQLVQSGAEVKKPGESLTISCKDSGNSFTIYWIGWVRQMPGKGLEWMGMIYPGDSGTRYSPSFEGQVTISADESINTAYLQWRSLKASDTAMYYCVRGIAVDWYFDLWGRGTLVTVSS VL: QSVLTQPPSVSGAPGQRVTISCTGSSSNIGAGFDVHWYQQLPGTAPKLLIYGNNNRPSGVPDRFSGSKSATSASLAITGLQAEDEADYYCQSSDSSLSGLYVFGTGTNVIV | 0.587
C010 (antibody, V domains shown, source: recombinant, purified) VH: EVQLVESGGGVVQPGRSLRLSCAASGFTFSSYAMHWVRQAPAKGLEWVAVILYDGSGKYYADSVKGRFTISRDNSKNTLYLQMNSLRAEDTAVYYCARDGIVDTALVTWFDYWGQGTLVTVSS VL: not shown | 35.1
C1003 (antibody, V domains shown, source: recombinant, purified) VH: QVQLVESGGGVVQPGRSLRLSCAASGFAFSSYGMNWVRQAPGKGLEWVTTVSSDGNVNYYIDSVKGRFTISRDNSKNTLYLQMNSLRGDDTAVYYCAKGPRFGWSYRGGSGFDIWGQGTMVTVSS VL: DIQMTQSPSSLSASVGDRVTITCQASQDISNYLNWYQQKPGKAPKLLIYDASNLETGVPSRFSGSGSGTDFTFTITSLQPEDIATYYCQQYDNLPITFGQGTRLEIK | 11.5
C888 (antibody, V domains shown, source: recombinant, purified) VH: EVQLVESGGGLVQPGGSLRLSCAASGFTVSSNYMSWVRQAPGKGLEWVSVIYSGGSAYYADSVKGRFTISRDNSKNTLYLQMNSLRAEDTAVYYCARDLRDQDGYSYGAFDYWGQGTLVTVSS VL: QSALTQPASVSGSPGQSITISCTGTSSDVGGYNYVSWYQQHPGKAPKLMIYDVSNRPSGVSNRFSGSKSGNTASLTISGLQAEDEADYYCSSYTSSSSWVFGGGTKLTVL | 7240
C153 (antibody, V domains shown, source: recombinant, purified) VH: EVQLVESGGGLIQPGGSLRLSCAASGFTVSSNYMSWVRQAPGKGLEWVSVIYSGYSTYYVDSVKGRFTISRDNSKNTLYLQMNSLRAEDTAVYYCARVGGAHSGYDGSFDYWGQGTLVTVSS VL: QSALTQPASVSGSPGQSITISCTGTSSDVGSYNLVSWYQQHPGKAPKLMIYEGSKRPSGVSNRFSGSKSGNTASLTISGLQAEDEADYYCCSYAGSSTWVFGGGTKLTVL | 1380
C517 (antibody, V domains shown, source: recombinant, purified) VH: EVQLVESGGGLVQPGGSLRLSCAASEFIVSRNYMSWVRQAPGKGLEWVSLIYSGGSTYYADSVKGRFTISRDNSKNTLYLQMNSLRAEDTAMYYCARDIAGRLDYWGQGTLVTVSS VL: DIQMTQSPSSLSASVGDRVTITCQASQDISKYLNWYQQKPGKAPKLLIYDASNLETGVPSRFSGSGSGTDFTFTISSLQPEDFATYYCQHYDSLSRLTFGGGTKVEIK | 28.8
C1002 (antibody, V domains shown, source: recombinant, purified) VH: EVQLVESGGGLVQPGGSLRLSCAASEFIVSSNYMTWVRQAPGKGLEWVSIMYPGGSTFYADSVKGRFTISRDNSKNTLYLQINRLRAEDTAVYYCARDIAGRLDYWGQGTLVTVSS VL: DIQMTQSPSSLSASVGDRVTITCQASQDINNYLNWYQQKPGKAPKLLIYDASNLETGVPSRFSGSGSGTDFSFTISSLQPEDIATYYCQQYDNLSRLTFGGGTKVEIK | 0.00513
